Measured values as given in patent US20110251126A1, “INTESTINAL TREATMENT” (priority 2008, published 2011).
Residue numbers refer to the chain shown, from its start. Square brackets hold non-standard residues; d marks the D form. Ends that are not written are not given here. Nle = CCCC[C@H](N)C(=O)O

B1: hPP3-36 (peptide)
peptide: LEPVYPGDNATPEQMAQYAADLRRYINMLTRPRY-NH2
B2: [Nle17,Nle30]hPP3-36 (peptide)
peptide: LEPVYPGDNATPEQ[Nle]AQYAADLRRYIN[Nle]LTRPRY
modifications: ends and bridges not checked
B3: [Ala30]hPP (peptide)
peptide: APLEPVYPGDNATPEQMAQYAADLRRYINALTRPRY
modifications: ends and bridges not checked
B4: [Glu10,Leu17,Thr30]hPP (peptide)
peptide: B3 peptide with D10E, M17L, A30T
modifications: ends and bridges not checked
B5: [Glu10,Nle17,Nle30]hPP (peptide)
peptide: B3 peptide with D10E, M17X, A30X
modifications: norleucine (Nle) at positions 17 and 30
B6: [Asn30]hPP (peptide)
peptide: B3 peptide with A30N
modifications: ends and bridges not checked
B7: [Gln30]hPP (peptide)
peptide: B3 peptide with A30Q
modifications: ends and bridges not checked
B8: [Leu17; Thr30]hPP (peptide)
peptide: B3 peptide with M17L, A30T
modifications: ends and bridges not checked
B9: [Thr30]hPP (peptide)
peptide: B3 peptide with A30T
modifications: ends and bridges not checked
B10: [Leu17; Ser30]hPP (peptide)
peptide: B3 peptide with M17L, A30S
modifications: ends and bridges not checked
B11: [Nle17,Nle30]hPP (peptide)
peptide: B3 peptide with M17X, A30X
modifications: norleucine (Nle) at positions 17 and 30
B12: [Glu10]hPP (peptide)
peptide: B3 peptide with D10E, A30M
modifications: ends and bridges not checked
B13: [Thr30]hPP2-36 (peptide)
peptide: PLEPVYPGDNATPEQMAQYAADLRRYINTLTRPRY
modifications: ends and bridges not checked
B14: [Nle17,Nle30]hPP2-36 (peptide)
peptide: B13 peptide with M16X, T29X
modifications: norleucine (Nle) at positions 17 and 30, numbered on full-length hPP (SEQ ID No:3)
B15: [Gln30]hPP2-36 (peptide)
peptide: B13 peptide with T29Q
modifications: ends and bridges not checked
B16: [Glu10,Nle17,Nle30]hPP2-36 (peptide)
peptide: B13 peptide with D9E, M16X, T29X
modifications: norleucine (Nle) at positions 17 and 30, numbered on full-length hPP (SEQ ID No:3)
B17: [Leu17; Thr30]hPP2-36 (peptide)
peptide: B13 peptide with M16L
modifications: ends and bridges not checked
B18: [Glu10]hPP2-36 (peptide)
peptide: B13 peptide with D9E, T29M
modifications: ends and bridges not checked
B19: [Asn30]hPP2-36 (peptide)
peptide: B13 peptide with T29N
modifications: ends and bridges not checked
B20: [Leu17; Ser30]hPP2-36 (peptide)
peptide: B13 peptide with M16L, T29S
modifications: ends and bridges not checked
B21: [Ala30]hPP2-36 (peptide)
peptide: B13 peptide with T29A
modifications: ends and bridges not checked
B22: [Glu10,Leu17,Thr30]hPP2-36 (peptide)
peptide: B13 peptide with D9E, M16L
modifications: ends and bridges not checked
B23: [Glu10,Nle17,Nle30]hPP3-36 (peptide)
peptide: LEPVYPGENATPEQ[Nle]AQYAADLRRYIN[Nle]LTRPRY
modifications: ends and bridges not checked
B24: hPP2-36 (peptide)
peptide: PLEPVYPGDNATPEQMAQYAADLRRYINMLTRPRY-NH2
B25: [Ala30]hPP3-36 (peptide)
peptide: LEPVYPGDNATPEQMAQYAADLRRYINALTRPRY
modifications: ends and bridges not checked
B26: [Gln30]hPP3-36 (peptide)
peptide: B25 peptide with A28Q
modifications: ends and bridges not checked
B27: [Glu10]hPP3-36 (peptide)
peptide: B25 peptide with D8E, A28M
modifications: ends and bridges not checked
B28: [Glu10,Leu17,Thr30]hPP3-36 (peptide)
peptide: B25 peptide with D8E, M15L, A28T
modifications: ends and bridges not checked
B29: [Leu17; Ser30]hPP3-36 (peptide)
peptide: B25 peptide with M15L, A28S
modifications: ends and bridges not checked
B30: [Asn30]hPP3-36 (peptide)
peptide: B25 peptide with A28N
modifications: ends and bridges not checked
B31: [Thr30]hPP3-36 (peptide)
peptide: B25 peptide with A28T
modifications: ends and bridges not checked
B32: [Leu17; Thr30]hPP3-36 (peptide)
peptide: B25 peptide with M15L, A28T
modifications: ends and bridges not checked

Target: human Y4 receptor (human, UniProt P50391 1-375)
Sequence (P50391 whole entry): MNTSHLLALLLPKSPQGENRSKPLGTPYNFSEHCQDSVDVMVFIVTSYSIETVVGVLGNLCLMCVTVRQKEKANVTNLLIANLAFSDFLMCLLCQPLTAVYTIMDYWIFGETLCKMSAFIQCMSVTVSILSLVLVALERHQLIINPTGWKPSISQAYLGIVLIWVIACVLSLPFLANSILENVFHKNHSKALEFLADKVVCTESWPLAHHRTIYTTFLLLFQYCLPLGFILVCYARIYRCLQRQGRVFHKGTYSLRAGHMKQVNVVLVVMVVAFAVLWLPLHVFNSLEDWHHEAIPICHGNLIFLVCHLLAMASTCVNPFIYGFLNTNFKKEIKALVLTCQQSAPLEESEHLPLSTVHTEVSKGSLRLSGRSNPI
Assay: cell-based or functional assay

| agonist potency (inositol phosphate turnover, transfected COS-7 cells): fold greater at Y4 than at Y1 receptor [fold] | agonist potency (inositol phosphate turnover, transfected COS-7 cells): fold greater at Y4 than at Y2 receptor [fold] | Binder |
| --- | --- | --- |
| ≥ 200 | ≥ 1000 | B1 |
| ≥ 200 | ≥ 1000 | B2 |
| ≥ 200 | ≥ 1000 | B3 |
| ≥ 200 | ≥ 1000 | B4 |
| ≥ 200 | ≥ 1000 | B5 |
| ≥ 200 | ≥ 1000 | B6 |
| ≥ 200 | ≥ 1000 | B7 |
| ≥ 200 | ≥ 1000 | B8 |
| ≥ 200 | ≥ 1000 | B9 |
| ≥ 200 | ≥ 1000 | B10 |
| ≥ 200 | ≥ 1000 | B11 |
| ≥ 200 | ≥ 1000 | B12 |
| ≥ 200 | ≥ 1000 | B13 |
| ≥ 200 | ≥ 1000 | B14 |
| ≥ 200 | ≥ 1000 | B15 |
| ≥ 200 | ≥ 1000 | B16 |

| agonist potency (inositol phosphate turnover, transfected COS-7 cells): fold greater at Y4 than at Y1 receptor [fold] | agonist potency (inositol phosphate turnover, transfected COS-7 cells): fold greater at Y4 than at Y2 receptor [fold] | Binder |
| --- | --- | --- |
| ≥ 200 | ≥ 1000 | B17 |
| ≥ 200 | ≥ 1000 | B18 |
| ≥ 200 | ≥ 1000 | B19 |
| ≥ 200 | ≥ 1000 | B20 |
| ≥ 200 | ≥ 1000 | B21 |
| ≥ 200 | ≥ 1000 | B22 |
| ≥ 200 | ≥ 1000 | B23 |
| ≥ 200 | ≥ 1000 | B24 |
| ≥ 200 | ≥ 1000 | B25 |
| ≥ 200 | ≥ 1000 | B26 |
| ≥ 200 | ≥ 1000 | B27 |
| ≥ 200 | ≥ 1000 | B28 |
| ≥ 200 | ≥ 1000 | B29 |
| ≥ 200 | ≥ 1000 | B30 |
| ≥ 200 | ≥ 1000 | B31 |
| ≥ 200 | ≥ 1000 | B32 |
